Measurements published in patent EP4578875A1 (Ying Mai de Medical Technology (Guangdong) Co., Ltd., dated 2025).

Molecular target: T1, recombinant human CD3 Epsilon protein (KACTUS) (human, UniProt P07766 23-126)
T1 construct: Bought protein
Test: ELISA, plate coated with 1 ug/ml recombinant human CD3 epsilon

T1 sequence (P07766 23-126): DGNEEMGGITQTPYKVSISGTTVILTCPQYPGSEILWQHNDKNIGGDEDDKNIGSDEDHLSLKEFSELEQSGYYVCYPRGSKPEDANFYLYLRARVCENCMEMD

B1: anti-Her2/anti-CD3 bispecific antibody comprising the anti-CD3 antibody mutant (mutation site VH-Y61C) (bispecific antibody)
VH: EVQLVESGGGLVQPGGSLRLSCAASGFTFSTYAMNWVRQAPGKGLEWVGRIRSKYNNYATCYADSVKDRFTISRDDSKNSLYLQMNSLKTEDTAVYYCARHGNFGNSYVSWFAYWGQGTLVTVSS
VL: QTVVTQEPSLTVSPGGTVTLTCRSSTGAVTTSNYANWVQQKPGQAPRGLIGGTNKRAPGVPARFSGSLLGDKAALTLLGAQPEDEAEYFCALWYSNLWVFGGGTKLTVL
scFv: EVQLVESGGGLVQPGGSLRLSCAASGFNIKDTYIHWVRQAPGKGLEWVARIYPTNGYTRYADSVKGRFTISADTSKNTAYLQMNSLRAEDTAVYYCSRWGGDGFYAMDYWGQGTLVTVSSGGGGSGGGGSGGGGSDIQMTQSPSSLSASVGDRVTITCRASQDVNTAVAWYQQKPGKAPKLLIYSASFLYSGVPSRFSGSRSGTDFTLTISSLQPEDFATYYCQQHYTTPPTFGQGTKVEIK
notes: also called CD3-Her2 Mutation; CD3-HER2 Mutation
- binding result: binds
